Target: enhanced GFP (EGFP)

Question: How did the t1/2 of the normalized PCC increase between mCherry-eDHFR and EGFP-mito over time in live HeLa cells with 24 uM cRGT turn out when “E. coli dihydrofolate reductase (eDHFR) (from UniProt P0ABQ4 1-159) (enzyme)” was run?
Answer: The t1/2 of the normalized PCC increase between mCherry-eDHFR and EGFP-mito over time in live HeLa cells with 24 uM cRGT was 7.26 min.
